Drawing on patent publication US20030095977A1 (published 2003), this text covers Ka and Kd for one molecule.

This assay deals with T1, CD20 (human, UniProt P11836 1-297).
T1 construct: whole, on cells; also called CD20 on Ramos cells
T1 sequence (looked up): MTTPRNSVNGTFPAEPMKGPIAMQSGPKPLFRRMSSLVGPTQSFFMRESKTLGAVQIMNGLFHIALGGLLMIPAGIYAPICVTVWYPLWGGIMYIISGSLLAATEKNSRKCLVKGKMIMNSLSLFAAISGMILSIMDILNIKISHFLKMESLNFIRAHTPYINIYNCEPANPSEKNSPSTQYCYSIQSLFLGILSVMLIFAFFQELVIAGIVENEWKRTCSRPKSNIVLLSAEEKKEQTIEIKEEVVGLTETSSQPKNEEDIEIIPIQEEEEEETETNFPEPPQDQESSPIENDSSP
The experiment in a line: saturation binding of radiolabeled mAb to Ramos cells (10^7 cells), nonlinear regression; avidity.

B1: B9E9 mAb (murine anti-CD20 antibody B9E9) (antibody, V domains shown)
VH: QVQLVQSGAELVKPGASVKMSCKASGYTFTSYNMHWVKQTPGQGLEWIGAIYPGNGDTSYNQKFKGKATLTADKSSSTAYMQLSSLTSEDSAVYYCARAQLRPNYWYFDVWGAGTTVTVSS
VL: DIVLSQSPAILSASPGEKVTMTCRASSSVSYMHWYQQKPGSSPKPWIYATSNLASGVPARFSGSGSGTSYSLTISRVEAEDAATYYCQQWISNPPTFGAGTKLELK
As for B1, the Ka came out at 1.02e+08 M⁻¹ and the Kd was 9.75 nM.
